In the supplement of paper PMC7877785:
± gives the uncertainty stated by the source.

Assay: self-splicing fitness, log relative to wild type (ln ratio); higher = more splicing; Tetrahymena group I intron in knt gene, E. coli kanamycin selection, DiMSum; sequences stand for … in CUCUCU…GGAGGGAAAAGUUAUCAGGCAUGCACCUGGUAGCUAGUCUUUAAACCAAUAGAUUGCAUCGGUUUAAAAGGCAAGACCGUCAAAUUGCGGGAAAGGGGUCAACAGCCGUUCAGUACCAAGUCUCAGGGGAAACUUUGAGAUGGCCUUGCAAAGGGUAUGGUAAUAAGCUGACGGACAUGGUCCUAACCACGCAGCCAAGUCCUAAGUCAACAGAUCUUCUGUUGAUAUGGAUGCAGUUCACAGACUAAAUGUCGGUCGGGGAAGAUGUAUUCUUCUCAUAAGAUAUAGUCGGACCUCUCCUUAAUGGGAGCUAGCGGAUGAAGUGAUGCAACACUGGAGCCGCUGGGAACUAAUUUGUAUGCGAAAGUAUAUUGAUUAGUUUUGGAGUACUCGUGGUCG
Procedure, shortened: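 Pooled colonies went to amplicon sequencing on an Illumina HiSeq 2500 after six replicate transformations. The plates were LB agar with 100 μg/mL carbenicillin, 50 μM IPTG and 0.2% rhamnose, with or without 25 μg/mL kanamycin, incubated overnight at 37°C or 30°C. The E. coli BL21(DE3) library had all eight P1ex-region intron nucleotides randomised, the intron placed in the knt kanamycin-resistance gene on pET-22b(+). DiMSum fitness is the error-weighted combination of replicate fold changes, kanamycin against none, normalised to wild type.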

Sequence | self-splicing fitness (ln) (37 °C) | self-splicing fitness (ln) (30 °C)
UCGGAGCAAUAUUACGUUCA | -2.2 ± 0.47 | –
UCGGAGCAAUAUUACGUUGC | -1.78 ± 0.42 | -2.44 ± 0.28
UCGGAGCAAUAUUACGUUGU | -1.93 ± 0.21 | -3.7 ± 0.22
UCGUAGCAAUAUUACGAAGU | -3.06 ± 0.35 | -3.58 ± 0.47
UCGUAGCAAUAUUACGAAUU | -3.57 ± 0.46 | -3.74 ± 0.29
UCGUAGCAAUAUUACGAGAU | -2.6 ± 0.39 | -4.2 ± 0.42
UCGUAGCAAUAUUACGCCGA | -2.03 ± 0.27 | -0.812 ± 0.31
UCGUAGCAAUAUUACGCCUA | 0.291 ± 0.11 | -0.658 ± 0.13
UCGUAGCAAUAUUACGCGAU | -2.36 ± 0.28 | -3.29 ± 0.24
UCGUAGCAAUAUUACGGAGA | -2.53 ± 0.27 | -2.51 ± 0.18
UCGUAGCAAUAUUACGGAUA | -1.02 ± 0.28 | -1.59 ± 0.34
UCGUAGCAAUAUUACGGCCA | -0.85 ± 0.16 | -0.72 ± 0.13
UCGUAGCAAUAUUACGGGAG | -3.28 ± 0.25 | -2.85 ± 0.2
UCGUAGCAAUAUUACGGUGA | -1.11 ± 0.1 | -1.57 ± 0.096
UCGUAGCAAUAUUACGUAAC | – | -1.64 ± 0.34
UCGUAGCAAUAUUACGUAAG | -2.58 ± 0.32 | -2.62 ± 0.23
UCGUAGCAAUAUUACGUCAU | -2.17 ± 0.33 | -3.23 ± 0.35
UCGUAGCAAUAUUACGUCGU | -1.25 ± 0.18 | -4.26 ± 0.32
UCGUAGCAAUAUUACGUGUG | -1.41 ± 0.089 | -2.3 ± 0.1
UCGUAGCAAUAUUACGUUUU | -3.25 ± 0.23 | -2.58 ± 0.17

Sequence | self-splicing fitness (ln) (37 °C) | self-splicing fitness (ln) (30 °C)
UCUAAGCAAUAUUACGAAAG | -2.03 ± 0.18 | -2.88 ± 0.17
UCUAAGCAAUAUUACGAAUC | -2.3 ± 0.45 | –
UCUAAGCAAUAUUACGACGG | 0.286 ± 0.11 | 0.00998 ± 0.076
UCUAAGCAAUAUUACGAGAG | -2.37 ± 0.21 | -3.21 ± 0.28
UCUAAGCAAUAUUACGAGUG | -0.683 ± 0.14 | -0.69 ± 0.092
UCUAAGCAAUAUUACGAUAA | -0.693 ± 0.2 | -1.46 ± 0.17
UCUAAGCAAUAUUACGCAGG | -2.36 ± 0.41 | -2.92 ± 0.23
UCUAAGCAAUAUUACGCGAA | -1.69 ± 0.16 | -3.03 ± 0.2
UCUAAGCAAUAUUACGCUUU | -2.94 ± 0.48 | -3.36 ± 0.21
UCUAAGCAAUAUUACGGAAA | -1.9 ± 0.27 | -2.93 ± 0.28
UCUAAGCAAUAUUACGGCAC | -2.85 ± 0.32 | -3.19 ± 0.44
UCUAAGCAAUAUUACGGUCA | -0.792 ± 0.12 | -1.31 ± 0.12
UCUAAGCAAUAUUACGUAAA | -0.985 ± 0.12 | -1.36 ± 0.097
UCUAAGCAAUAUUACGUACA | -1.13 ± 0.13 | -1.57 ± 0.13
UCUAAGCAAUAUUACGUACG | 0.49 ± 0.13 | -0.481 ± 0.11
UCUAAGCAAUAUUACGUAUC | -3.01 ± 0.21 | -4.13 ± 0.24
UCUAAGCAAUAUUACGUGCC | – | -4.37 ± 0.39
UCUAAGCAAUAUUACGUGUC | – | -4.21 ± 0.36
UCUAAGCAAUAUUACGUUUG | -2.4 ± 0.24 | -3.95 ± 0.3
